From publication PMC8706911, “Insights into the Neutralization and DNA Binding of Toxin–Antitoxin System ParESO-CopASO by Structure-Function Studies” (Microorganisms, 2021)

B1: CopASO (SO_1445), antitoxin of the ParESO-CopASO type II toxin-antitoxin system of prophage CP4So (natural protein, Shewanella oneidensis, UniProt Q8EGZ2 1-102, looked up)
chain: MSTIKPVSVKLDADIKARVEHLAETRKRSSHWMMREAIREYVEREEKREALQQEALRAWEEHQTSGLHVTGDEVVSWLESWGSENEQAALHATNSLHCHCIT
modifications: selenomethionine-substituted in the crystal
notes: CopASO (SO_1445), antitoxin of prophage CP4So, Shewanella oneidensis; called full-length in the complex; 93 residues modelled in CopASO (I), 77 in CopASO (II); also called CopASO (I); CopASO (II)
B2: ParESO (SO_1444), toxin of the ParESO-CopASO type II toxin-antitoxin system of prophage CP4So (natural protein, Shewanella oneidensis)
chain: MPQIVFTATALRDLERLREFLRSKNPPAAQRAASAIINTIRKLESYPDIGRPIDDNDFSFRELLIDFGDTGYLAMYQYDGGERLTVLCIRHQKEAGY
modifications: selenomethionine-substituted in the crystal
notes: also called ParESO (I); ParESO (II)

What was measured:
[1] = tested on: CopASO;ParESO (in purified ParESO-CopASO complex) (Shewanella oneidensis (prophage CP4So);Shewanella oneidensis (prophage CP4So)); assay: ITC; settings: ITC: 20 mM Tris pH 8.0, 100 mM NaCl, 5% (v/v) glycerol, 20 °C; 100-400 uM DNA injected into 10-100 uM protein; one-site model
[2] = tested on: CopASO (Shewanella oneidensis (prophage CP4So)); assay: ITC; settings: ITC: 20 mM Tris pH 8.0, 100 mM NaCl, 5% (v/v) glycerol, 20 °C; 100-400 uM DNA injected into 10-100 uM protein; one-site model
[3] = target: the molecule itself; assay: crystal structure; Se-Met ParESO-CopASO complex, crystallised in 20% PEG3350, 0.2 M tri-sodium citrate at 20 °C; SAD, 3.80 Å
[4] = target: B1; assay: as above; settings: both partners purified

TAAGGTATTACCTAGTAGTACTAAG (double strand) [25 bp copASO-parESO promoter duplex]
Kd [1]: 0.66 µM | Kd [2]: 0.016 µM

B1
stoichiometry N [3]: 2

B2
binding result [4]: binds
